Test: label from the status in PepcDB records

Question: With “MEKDDSNDGSIIGGNGITAGKDVFLHNIKAPVNIGNTNNTNQNYTTYIISENIEEHTKSLIDFAQFCENKREYEKALDYYEQARVKLEKSESKILLVKVMMGEAVCHHKKGNLSRAKNLIFEAERLDPKNPTVLANIASQLKSENPDEAEIYAKKALEFDKNNFLAKCVIGLLEYDKGNIKDSLRTLKQASTINPNVGYPFNCMARIYSSEKDYGNAIKYGKKAVKIESDNAIFLMELAIDYMNIAFPENEVCISSDFSKMLKMEYLEKALKCLEKAKEMSESQGNNYLNCEIYTYLSRVHLAKGEFNKSIEYCEMIINSGLDTIDIYIILGEAYGECQNYDKVIEYYELLLKRENLTENHLFIVKANLATSYFYKNRLNEAEKLFKELIDENPENINLCIQMSNVLEENGKIEKAFSLLEKIDKFSQKPWDFYYMMGRLYHKKDDYESSVKYLKEAISKNSEAIPPRIYLINLYLECGMHKYAVKQAIELIQLAPTGINFYKLASLYYEIGDYKESAVFSRKALEADYGKVETYRLLCSSLLEANKLSEAKDEFENAFTKYPDDLELKLNYSATLSALEYTEKAIEILTQIISNDPNVVFAYKALARIYYKEASYEIALEYSKKAVFIEPEDEDAHFVMGCSLLNLGKNDEAVEEIQKVIEINPNFDSAWLIDAEKGMEYLGNLITISNHIIERYENGNITISKVGELLIKDTFDLLCHINNVKVAESLSLSDEKIDQLRNSPISKRDVLVDETMLGILAKTGSLDLLRLAFDHVYVIKELEDKIVIGPYLKDHPYRDVKNKLQIIDGGWIESLNPNDMIALATKKIVVENKFSKNDISFIALALDKDFLCLTEDLLLRIQLESINKPTCGIFGFVNYAVSKNIIKQDDAEKIFTKVKSVCIVE” as the sequence, how does the protein production read?
Answer: Its protein production is “failed”.

Question: Which protein production does the source give for “MEKDKKTTAKIYPFYPNGQFYFERGVEAFREQRIKEAIRYLVRASELEPGEPVILCQLAICYTEIGQFHKSNQLLREIMEKRLGNMEYCYYFIANNFAYMKDYRRALQYASRYLEIAADGDYAEEAKDLIEVLLEETPFGETIENGFSKLEQEFYSYKKEINRYLAEEDSASACDILKKVIDEKPNFWPAYNQLAALYFEQLKEEEGVKVLSDLIARNPGNLLGLCDLFIYHFYKGNREEADSLYSELRDVLPVLSHHKEKIGLIHAMMGDYEEADDLLEQVADLEVTERSKYYYYRAKSAYYLDEVEEAKMFWHSFLECDLYEDTRFPWEQEADLTNDTRLVLEMLQAESDMTHLLGVYAMTVSGNRPEFVLFHPLLDMSSWSYMEHLMFTDFDYFPDGNVEQNCYLIMKAMTILRENGLLLNEENLPLYETIFSLVLMENRKELILGRYTIETVASAIAKIFLPEMKLASVDEFECSKCARDIEQFLSR” here?
Answer: The protein production was “failed”.

Question: For “MEKDLLDKLGQHLVWRMGRAEDEDVLVVRVGLASATPRFRELPRLLNLPEAEMRRLVQEGRVRVEWVEE”, which protein production is on record?
Answer: Its protein production is “not failed”.

Question: For “MEKFQENNILEDKKVCINENEEAWNKETYNAWIKRFGTAKEAAEKIKSMPEKKLNVLLDKFGDVKGKKIFNLMGSNGNKAVALALLGADVTVVDFSEGNRRYALDLAEACGVKINFILSDVLRMPKEVMSGDYDIVFAEMGILHYFSDLSPFMNVIHSLLKDGGKAVLRDFHPVSTKLITSRGSTAKVRKHKVTGDYFDTSLEEKEVAYSKYLEEGEVEKVFLRKWNLGEIVTAVANTGLKIESLTEEPNLSSDVFDKGIPKTFTIVARK”, which protein production is on record?
Answer: Its protein production is “failed”.

Question: For “MEKHKIALISDWYFPKVGGIEYSIHALAKTLNQRGHKVHVITRCYPNIPEYNIRDGVAIIRIKSSPFPGQQRFLMPGAYKELYRLLKEGNYDIINSHGLDSPLGMIALIAARKLGIPSVVTNHSLVGHTPLRLYLYLAGKLLVGNADAVIAVSSAVEKDTKLMTKKPVYRIFNGMEYEESNPIAPLPFDRKGKLVIITVARMTKKKGVQNLIGLAPSFLKKYENLIFLMIGDGPLLKNLEKKVEESGLSENFYFTGEVPRKAVLEYLEQADIFALPSSDEAFGISILEAISKNVPVVAMNHSGISDIITHGVNGYLADNLSEFASCLQDLIEKPALRAEFARKAGEGLSNYDWNKIYEQTCRVYREVIYEKHHHNS”, which protein production is on record?
Answer: The protein production was “failed”.

Question: For “MEKIAILVDVQNVYYTCREQYGRHFDYNQFWSQVTQNRTVVKANAYAIASKDPQQRQFHHILRGIGFEVMLKPFIQRSDGSAKGDWDVGIALDGYELAQEVDTVVLVSGDGDFEPLVTRIAQRFQVKVEVYGVPKLTAQHLIDVASQFHPIEHRLL”, which protein production is on record?
Answer: The protein production was “failed”.

Question: For “MEKKKPFSVLLMGSDARPGETNGRADTIILATANKQQNAVEMVSIPRDTKVDYGNGDIGKINASYSNGGPSGTVSAVEKLMPGVPVDYFISINMEGFKDLVDAVGGITVYNDIDLTEVNSKFVKGNITLNGTDALQYVRIRHEDPRGDFGRQDRQRDVIIGIANKVISSSGVSNFESIMKAVGDNFQTNMTLTDITSMATNYSSVLKNVDSQELKGEGEMIYSESYGFDLYYFAPDETDLERVINMFKKSLDITELEHHHHHH”, which protein production is on record?
Answer: Its protein production is “not failed”.

Question: For “MEKLKEFRGIKEHLGVFREAVKDAERIGFAGVPGVCTPFAQLFAYAVRDKDNIFIPNTDFSKARKLEVTEYGVELGEISPGNVDVLVLLGGLSMPGIGSDIEDVKKLVEDALEEGGELMGLCYMDMFARAGWYELLDFDCVINADIDGYVLRG”, which protein production is on record?
Answer: Its protein production is “not failed”.

Question: With “MEKLLTVFTPTYNRVHTLHKCYESLKNQSCKDFKWLIIDDGSTDGTKDVVKRWIHEKNDFEITYIYQSNKGMHGAHNTAYENIDTELNICIDSDDYMPRDAVEKINKNWNRVKHNKKISGLVGLDSYENGDVIGKKFPEGLKEATLFEINNKYKIPGDKKLVYRSELTKKFPYPIFEGEKYVGLAYKYYKLDEEHRLALINDILCVVEYLEDGSSKNMIKQYKNNPKGFAFYRIENIKNSKATLKFKFKESIHYVASSFISKNKNFLIESPEKILTLLSIPMGMLLYLYIKIKG” as the sequence, how does the protein production read?
Answer: The protein production was “failed”.

Question: Which protein production does the source give for “MEKMLSTYIEEAMEFYAIGKGADFKAIIEKGIASCMTTYSTYDRELYKAYALLATYLSNHAFKIIKSRPAFQAMAINCFDQLDSLRQQHDPHLQVTKGFLWMLSSSRAQDADALLISVLRNHPKNILALIGRACLAYNRQDYIGALGYFKSVLLIQPQGMADVWVGIGHCFWKMGELEKAQLSFQIALEHNGQCLNAALALALVKFEHNDEQSYQDGKMLLTAAYKENNKNPDLLSILAGMYYADGNHKLVWSFAGNAIKFTANKHIESRNYFQIAKSYHATGQFESAKKYYLLSAKSAPDGYILPLVGVAQMYLHEGELNRSKAFLESFLTSEPDEPVVMDLLAKIYLEYKCPEKIDKAIEMLVKVVESASYHQNTNSWLNLAFAYEQKRLWAHGVNAYQKAIDIYLSQGHQIPIEWLNNLASSQLMAKMPEKALNTLDDALSKCRVMNSDNKTTNLLSLQYNRGLVLEELHMFTLAAENYKSITKEYSSYHDCYLRLGVMAIQKNNHTQAIEHLKDILVEDNLNMTARTYMGDCFKGLSLDKFATFNYNMILARQSKFTNTYVSMAMGNFCLEKLQNWIAEGNFRAARKQQEKALQCFGKILDCNPKNLWAANGIGAVLSSCNNLSAGGAIFKQIIECGNKCIPAIINSAHIALVSGQYRLAIQTYERCLKDHLPKNRVDVMHCLAKALYDNGDARKAKMWLLKVRHLVPHDPFVIFNLGLAIKKETEQALALPRPQLDELMGLDGLLKVAFKLFCHINLNHPKISVRVSAKYAEDCQNLMTELIAKKRQASESHAMEEDRVQLQKQRYRDHIEHQRQQELQREEEERVRRENLKIQRKEVLERTRKIISAPLAPDVPKKSAGNGRAKKNQENGDGKAKKSGPPKKKTRKRAAGKEQEDIEPLKKPKSKEFIDTDDDNSE” here?
Answer: The protein production was “failed”.

Question: For “MEKNDIFVVIPAYNEEKMIKNTLINLKSHGYENIIVVDDGSRDNTSKIAISEEVIVCKHIINRGLGGALKTGLKCAVKYNPKVIVTFDADGQHDPEDIFKVSEPILEDSFDVVVGSRLIDENELKNMPLIKKIGNWGLNFITYLMGGRMVTDSQGGLRAFSYDAAEIVSKQLKSNRYEVSSEFIVLFKKNNLKFKEVPIKTIYTEYSMARGTNVITGFKILFKLLIQKLILEHHHHHH”, which protein production is on record?
Answer: The protein production was “not failed”.

Question: Which protein production does the source give for “MEKNSLFSQRIRLRHLHTFVAVAQQGTLGRAAETLNLSQPALSKTLNELEQLTGARLFERGRQGAQLTLPGEQFLTHAVRVLDAINTAGRSLHRKEGLNNDVVRVGALPTAALGILPSVIGQFHQQQKETTLQVATMSNPMILAGLKTGEIDIGIGRMSDPELMTGLNYELLFLESLKLVVRPNHPLLQENVTLSRVLEWPVVVSPEGTAPRQHSDALVQSQGCKIPSGCIETLSASLSRQLTVEYDYVWFVPSGAVKDDLRHATLVALPVPGHGAGEPIGILTRVDATFSSGCQLMINAIRKSMPF” here?
Answer: The protein production was “failed”.

Question: For “MEKQIFCQFLVVMMLLSSSQIQGDLRKGCYDLGITVLMGCPDSIDKKLPAPPTPSEGCCTLVRTIGMKCVCEIVNKKIEDTIDMQKLVNVAAACGRPLAPGSQCGSYRVPGA”, which protein production is on record?
Answer: Its protein production is “failed”.

Question: Which protein production does the source give for “MEKRELKASVPKFDKIPWLSEASLVNKPLVLSLPRRYPHTSATFLTSSKKNMNLPILFQVPDVLSKARRNQCDSMLLRNQQLCSTCQEMKMVQPRTMKIPDDPKASFENCMSYRMSLHQPKFQTTPEPFHDDIPTENIHYRLPILGPRTAVFHGLLTEAYKTLKERQRSSLPRKEPIGKTTRQ” here?
Answer: Its protein production is “failed”.

Question: Which protein production does the source give for “MEKSKIINYWDKRAESFSKNKLAELESTHAQKWIEEINNINPIQPGMKILDIGTGAGFLAILCGNLGSDVTGIDLSPEMIQSAKQNAESHHQDIHFQVMDAESLQFNDETFDMVISRNVTWLLPNTKAAYQEWLRVLKPNGKLINIDANYGNDSFTDYKSLNTEHAHHTLGKDMLAESEAIKQNIPINHQPRPQTDMDILKSLGFDHIHLDTEIYLRMYSEQDEFYNPTPIFLISVTKSY” here?
Answer: Its protein production is “failed”.

Question: For “MELASPISSSFLEAFSRLSLERYSFLSIATSTIPSAAFLTTGFSSFNTSRAKLNASSMISGSLVLTTISFSTLRAETFFFSDFPFRMFLIQENIILATLIILAPRVATPSAAYSFIGSGLFSTIPINISESLVLISSGNSMKVTMAFIVSTACKTTVSSLSSNSLIRSGITSFTSSIPSSFFIASFFIMYRVPFFIKGSFSCNAFLSIDILFSLSSSTIWRAFLTLHPFKFSIYSS”, which protein production is on record?
Answer: Its protein production is “failed”.

Question: For “MELETLFVIGMFLTFGALLMTGYPVAWVLGGTAVIWTVVGVVAVENFGANLWFDYQSSMGLVPERIWKVVSSETLVALPMFIFMGIMLDQSGVAERLMNSMVKLFGAVRGGYAVTVIVIGVLLAATTGIIGASVVLLGMLSLPVMMENKYDKGFAVGTACATGTLGILIPPSIMLVLMADRLAVPEASVGDLFMGAFFPGLMLGAMYVAYAIIRPMLQPNIAPVPEGTEKVSWAIVWDVAKAVVPTAALILGVLGSIFAGIATPTEASGVGALGALLLALMSGRLNLNVLNSSMQQTTRTAAFIFAIFLGATAFSVVLRGLGGDQVIEDALLGLPFGPYGVVLTILLGVFLLGFFLDWVEITLIILPLVAPVVQQLGFDLVWFTILFAMCLQTSFLTPPVGFALFYIKGVAPPEIKVTDIYRGVIPFIIIQLVALAIVFVVPEIATWLPGVAYD”, which protein production is on record?
Answer: Its protein production is “failed”.

Question: With “MELGAYRWKAPVGYLDEYVKSFRERKIIGSLCASCGRVYVPPREICARCFTETAEKVEVSQYGEVLAFLVSPPLEKGKVVIAGIDAVQAGFLKEGEQIILAMVRFEGTSSSLVLPLINTEPEKVRVGMKVKAVWAEECKGKLADLIGVEPAFEVIYKLEHHHHHH” as the sequence, how does the protein production read?
Answer: Its protein production is “failed”.

Question: For “MELIFLGTSAGVPTRTRNVTAILLNLQHPTQSGLWLFDCGEGTQHQLLHTAFNPGKLDKIFISHLHGDHLFGLPGLLCSRSMSGIIQPLTIYGPQGIREFVETALRISGSWTDYPLEIVEIGAGEILDDGLRKVTAYPLEHPLECYGYRIEEHDKPGALNAQALKAAGVPPGPLFQELKAGKTITLEDGRQINGADYLAAPVPGKALAIFGDTGPCDAALDLAKGVDVMVHEATLDITMEAKANSRGHSSTRQAATLAREAGVGKLIITHVSSRYDDKGCQHLLRECRSIFPATELANDFTVFNV”, which protein production is on record?
Answer: Its protein production is “failed”.
